Measurements reported in patent publication US20240228562A1 (Pieris, published 2024).

Experiments:
mouse CTGF (Abbexa) = biological target: T1, mouse CTGF (Abbexa) (mouse, UniProt P29268 26-348, limits assumed); assay: SPR (Biacore)
T1 construct: also called Murine CTGF; mCTGF
T1 sequence (looked up): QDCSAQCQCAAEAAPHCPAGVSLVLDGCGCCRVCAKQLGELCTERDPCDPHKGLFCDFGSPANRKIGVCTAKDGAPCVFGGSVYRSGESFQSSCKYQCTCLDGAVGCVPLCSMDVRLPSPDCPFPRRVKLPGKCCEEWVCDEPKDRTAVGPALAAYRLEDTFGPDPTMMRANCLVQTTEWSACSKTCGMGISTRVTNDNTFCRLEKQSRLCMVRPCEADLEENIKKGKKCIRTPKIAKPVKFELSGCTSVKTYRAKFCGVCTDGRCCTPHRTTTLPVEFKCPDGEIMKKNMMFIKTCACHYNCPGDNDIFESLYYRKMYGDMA
Description: (§1) The binding of exemplary lipocalin muteins to human (Creative Biomart), cynomolgus, rat (R&D Systems) and mouse CTGF (Abbexa) was determined by SPR using a Biacore instrument (Cytiva, formerly GE Healthcare). Some targets were fused to a human IgG1 Fc tag, and captured via the anti-human IgG antibody kit, others were directly immobilized.
(§2) For some measurements, human CTGF with a human IgG1 Fc Tag or rat or murine CTGF without a tag were directly immobilized to a CM5 Chip. The carboxyl groups on the chip were activated using 1-ethyl-3-(3-dimethylaminopropyl)-carbodiimide (EDC) and N-hydroxysuccinimide (NHS). […] Residual non-reacted NHS-esters were blocked by passing a solution of 1 M ethanolamine across the surface. The reference channel was activated/deactivated. For the capture setting, targets with an IgG Fc Tag at 0.25-2.5 μg/mL in HBS-EP+ buffer were captured by the anti-human IgG-Fc antibody at the chip surface for 180 s at a flow rate of 10 μL/min.
(§3) The binding assay was carried out with a contact time of 180 s, a dissociation time of 900-3600 s and a flow rate of 30 μL/min. All measurements were performed at 25° C. […] For the directly immobilized targets, the same regeneration conditions were used. Prior to the protein measurements, three startup cycles were performed for conditioning purposes.

cynomolgus CTGF = biological target: T2, cynomolgus CTGF (cynomolgus, UniProt I7G525 27-349); assay: SPR (Biacore)
T2 construct: also called cyCTGF
T2 sequence: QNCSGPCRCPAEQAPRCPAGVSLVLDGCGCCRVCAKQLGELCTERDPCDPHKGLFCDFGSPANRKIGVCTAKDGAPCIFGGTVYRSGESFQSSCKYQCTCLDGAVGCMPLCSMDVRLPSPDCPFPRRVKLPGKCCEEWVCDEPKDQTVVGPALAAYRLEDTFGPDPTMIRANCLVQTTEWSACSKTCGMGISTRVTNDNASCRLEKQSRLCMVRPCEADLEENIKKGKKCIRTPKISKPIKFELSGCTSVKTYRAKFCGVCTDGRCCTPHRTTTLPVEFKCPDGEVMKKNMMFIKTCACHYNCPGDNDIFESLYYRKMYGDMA
Description: as §1, §2, §3

[1] = biological target: T3, recombinant rat CTGF protein (R&D Systems) (rat, UniProt Q9R1E9 25-347); assay: SPR (Biacore)
T3 construct: Bought; also called rCTGF
T3 sequence: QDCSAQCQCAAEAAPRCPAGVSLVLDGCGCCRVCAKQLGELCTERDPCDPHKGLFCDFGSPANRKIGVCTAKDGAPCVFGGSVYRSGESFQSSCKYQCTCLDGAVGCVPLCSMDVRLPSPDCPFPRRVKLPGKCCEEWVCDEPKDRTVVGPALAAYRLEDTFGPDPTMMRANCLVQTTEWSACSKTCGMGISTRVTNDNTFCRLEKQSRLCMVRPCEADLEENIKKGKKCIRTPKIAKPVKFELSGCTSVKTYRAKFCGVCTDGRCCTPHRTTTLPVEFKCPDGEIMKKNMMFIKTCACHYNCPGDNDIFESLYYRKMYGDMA
Description: as §1, §2, §3

[2] = biological target: T4, recombinant human CTGF-Fc protein (Creative Biomart) (human); assay: SPR (Biacore)
T4 construct: Bought; also called human CTGF with a human IgG1 Fc Tag
T4 sequence (chain, as listed by the source limits assumed): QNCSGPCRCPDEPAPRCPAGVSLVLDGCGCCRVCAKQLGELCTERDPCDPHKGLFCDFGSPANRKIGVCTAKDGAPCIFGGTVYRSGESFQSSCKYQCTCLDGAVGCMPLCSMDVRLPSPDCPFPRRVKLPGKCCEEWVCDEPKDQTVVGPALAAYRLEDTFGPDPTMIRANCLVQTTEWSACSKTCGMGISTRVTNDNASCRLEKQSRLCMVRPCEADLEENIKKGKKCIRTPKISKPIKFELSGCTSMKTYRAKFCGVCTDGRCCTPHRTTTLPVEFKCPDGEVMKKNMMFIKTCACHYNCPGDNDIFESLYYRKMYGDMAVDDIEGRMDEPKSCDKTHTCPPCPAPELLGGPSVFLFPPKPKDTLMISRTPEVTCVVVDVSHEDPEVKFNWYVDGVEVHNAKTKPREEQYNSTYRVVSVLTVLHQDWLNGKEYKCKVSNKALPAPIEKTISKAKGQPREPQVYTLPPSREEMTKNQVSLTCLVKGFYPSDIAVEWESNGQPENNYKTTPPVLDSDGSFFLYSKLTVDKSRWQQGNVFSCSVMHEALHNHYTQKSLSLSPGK
Description: as §1, §2, §3

[3] = biological target: T5, recombinant human CTGF protein (R&D Systems, SEQ ID NO: 79) (human, UniProt P29279 27-349); assay: HTRF, 1 nM biotinylated human CTGF
T5 construct: Bought; also called human CTGF/CNN2; huCTGF
T5 sequence: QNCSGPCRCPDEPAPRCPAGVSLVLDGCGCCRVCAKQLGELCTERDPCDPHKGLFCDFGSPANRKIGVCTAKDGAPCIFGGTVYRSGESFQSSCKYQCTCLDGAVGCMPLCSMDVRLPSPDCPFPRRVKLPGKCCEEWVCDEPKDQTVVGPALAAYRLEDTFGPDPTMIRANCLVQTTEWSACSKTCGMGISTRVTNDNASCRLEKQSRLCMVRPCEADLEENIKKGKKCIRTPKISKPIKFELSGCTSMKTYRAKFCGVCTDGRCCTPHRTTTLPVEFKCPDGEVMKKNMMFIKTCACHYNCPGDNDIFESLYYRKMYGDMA
Description: Binding of some fusion proteins was tested by a Homogeneous Time Resolved Fluorescence (HTRF assay). In detail, 1 nM of biotinylated human CTGF (R&D Systems) was incubated for 1 h with a titration of some lipocalins starting at 5 nM in 384 Flat Bottom White Polystyrol microtiter plate (Greiner). Samples were diluted in PBS containing 0.1% Tween 20 and 2% BSA. As donor, Streptavidin-Terbium at a concentration of 0,006 μg/mL was used, the acceptor was 0.2 μg/mL anti-His-d2 (both CisBio). After another 1 h of incubation, the fluorescence intensity of the donor and acceptor on the plate was read using a fluorescence microplate reader M1000 (Tecan) with the standard settings recommended by CisBio. The calculated ratio of signals was used for the curve fitting performed in GraphPad Prism 7 software.

B1: lipocalin mutein of SEQ ID NO: 31 (designed binder)
chain: QDSTSDLIPAPPLSKVPLQQNFQDNQFQGKWYVVGWAGNVKLREDKQPQKMSATIYELKEDKSYDVTEVVFEQKKCHYIIKTFVPGSQPGEFTAGDIKSPPGYTSSLVRVVSTNYNQHAMVFFKKVSQNREFFWITLYGRTKELTSELKENFIRFSKSLGLPENHIVFPVPIDQCIDG
notes: also called hNGAL mutein; not shown: C-terminal His-tag
Kd (mouse CTGF (Abbexa)): 1.58 nM
koff (mouse CTGF (Abbexa)): 0.000444 s⁻¹
kon (mouse CTGF (Abbexa)): 281000 M⁻¹ s⁻¹
Kd (cynomolgus CTGF): 0.452 nM
koff (cynomolgus CTGF): 7.31e-05 s⁻¹
kon (cynomolgus CTGF): 162000 M⁻¹ s⁻¹
Kd [1]: 1.89 nM
koff [1]: 0.000423 s⁻¹
kon [1]: 223000 M⁻¹ s⁻¹
Kd [2]: 0.249 nM
koff [2]: 4.85e-05 s⁻¹
kon [2]: 195000 M⁻¹ s⁻¹

B2: lipocalin mutein of SEQ ID NO: 34 (designed binder)
chain: QDSTSDLIPAPPLSKVPLQQNFQDNQFQGKWYVVGWAGNVILREDKQPFKMSATIYELKEDKSYDVTEVVFEQKKCHYIIKTFVPGSQPGEFTLGDIKSPPGETSTLVRVVSTNYNQHAMVFFKKVSQNREFFWITLYGRTKELTSELKENFIRFSKSLGLPENHIVFPVPIDQCIDG
notes: also called hNGAL mutein
Kd (mouse CTGF (Abbexa)): 11.9 nM
koff (mouse CTGF (Abbexa)): 0.00286 s⁻¹
kon (mouse CTGF (Abbexa)): 240000 M⁻¹ s⁻¹
Kd (cynomolgus CTGF): 1.72 nM
koff (cynomolgus CTGF): 0.000238 s⁻¹
kon (cynomolgus CTGF): 139000 M⁻¹ s⁻¹
Kd [2]: 1.13 nM
koff [2]: 0.000169 s⁻¹
kon [2]: 150000 M⁻¹ s⁻¹

B3: lipocalin mutein of SEQ ID NO: 36 (designed binder)
chain: QDSTSDLIPAPPLSKVPLQQNFQDNQFQGKWYVVGWAGNVKLREDKQPAKMSATIYELKEDKSYDVTEVVFEQKKCHYIIKTFVPGSQPGEFTAGDIKSPPGYTSSLVRVVSTNYNQHAMVFFKKVGQNREFFWITLYGRTKELTSELKENFIRFSKSLGLPENHIVFPVPIDQCIDG
notes: also called hNGAL mutein
Kd (mouse CTGF (Abbexa)): 1.68 nM
koff (mouse CTGF (Abbexa)): 0.00052 s⁻¹
kon (mouse CTGF (Abbexa)): 310000 M⁻¹ s⁻¹
Kd (cynomolgus CTGF): 0.695 nM
koff (cynomolgus CTGF): 9.77e-05 s⁻¹
kon (cynomolgus CTGF): 141000 M⁻¹ s⁻¹
Kd [2]: 0.42 nM
koff [2]: 6.95e-05 s⁻¹
kon [2]: 165000 M⁻¹ s⁻¹

B4: lipocalin mutein of SEQ ID NO: 35 (designed binder)
chain: QDSTSDLIPAPPLSKVPLQQNFQDNQFQGKWYVVGWAGNVKLREDKQPLKMSATIYELKEDKSYDVTEVVFEQKKCHYIIKTFVPGSQPGEFTAGDIKSPPGYTSSLVRVVSTNYNQHAMVFFKKVSQNREFFWITLYGRTKELTSELKENFIRFSKSLGLPENHIVFPVPIDQCIDG
notes: as for B1
Kd (mouse CTGF (Abbexa)): 2.24 nM
koff (mouse CTGF (Abbexa)): 0.000287 s⁻¹
kon (mouse CTGF (Abbexa)): 128000 M⁻¹ s⁻¹
Kd [1]: 1.42 nM
koff [1]: 0.000273 s⁻¹
kon [1]: 193000 M⁻¹ s⁻¹
Kd [2]: 0.55 nM
koff [2]: 5.94e-05 s⁻¹
kon [2]: 108000 M⁻¹ s⁻¹

B5: lipocalin mutein of SEQ ID NO: 24 (designed binder)
chain: QDSTSDLIPAPPLSKVPLQQNFQDNQFQGKWYVVGVAGNAILRTDKQPAKMFATIYELKEDKSYDVTSVRFEAKSCKYTIKTFVPGSQPGEFTAGNIKSAPGQTSTLVRVVSTNYNQHAMVFFKHVSQNREIFVITLYGRTKELTSELKENFIRFSKSLGLPENHIVFPVPIDQCIDG
notes: also called hNGAL mutein
Kd (mouse CTGF (Abbexa)): 0.034 nM
koff (mouse CTGF (Abbexa)): 1.16e-05 s⁻¹
kon (mouse CTGF (Abbexa)): 299000 M⁻¹ s⁻¹
Kd (cynomolgus CTGF): 0.135 nM
koff (cynomolgus CTGF): 2.63e-05 s⁻¹
kon (cynomolgus CTGF): 195000 M⁻¹ s⁻¹
Kd [1]: 0.255 nM
koff [1]: 3.51e-05 s⁻¹
kon [1]: 138000 M⁻¹ s⁻¹
Kd [2]: 0.09 nM
koff [2]: 1.41e-05 s⁻¹
kon [2]: 157000 M⁻¹ s⁻¹

B6: fusion protein of SEQ ID NO: 62 (designed binder)
chain: QDSTSDLIPAPPLSKVPLQQNFQDNQFQGKWYVVGRAGNNQLREDKSPPKMWATIYELKEDKSYDVTHVHFSTKKCRYIIDTFVPGSQPGEFTAGAIKSGPGLTSPLVRVVSTNYNQHAMVFFKWVTQNREWFTITLYGRTKELTSELKENFIRFSKSLGLPENHIVFPVPIDQCIDGGGGGSGGGGSGGGGSQDSTSDLIPAPPLSKVPLQQNFQDNQFQGKWYVVGWAGNVKLREDKQPQKMSATIYELKEDKSYDVTEVVFEQKKCHYIIKTFVPGSQPGEFTAGDIKSPPGYTSSLVRVVSTNYNQHAMVFFKKVSQNREFFWITLYGRTKELTSELKENFIRFSKSLGLPENHIVFPVPIDQCIDG
notes: not shown: C-terminal His-tag
EC50 [3]: 0.63 nM

B7: fusion protein of SEQ ID NO: 68 (designed binder)
chain: QDSTSDLIPAPPLSKVPLQQNFQDNQFQGKWYVVGLAGNAILREDKQPAKMFATIYELKEDKSYDVTSVRFEAKSCSYTSKTFVPGSQPGEFTAGNIKSAPGQTSTLVRVVSTNYNQHAMVFFKHVSQNRETFVITLYGRTKELTSELKENFIRFSKSLGLPENHIVFPVPIDQCIDGGGGGSGGGGSGGGGSQDSTSDLIPAPPLSKVPLQQNFQDNQFQGKWYVVGWAGNVKLREDKQPQKMSATIYELKEDKSYDVTEVVFEQKKCHYIIKTFVPGSQPGEFTAGDIKSPPGYTSSLVRVVSTNYNQHAMVFFKKVSQNREFFWITLYGRTKELTSELKENFIRFSKSLGLPENHIVFPVPIDQCIDG
notes: not shown: C-terminal His-tag
EC50 [3]: 0.56 nM

B8: fusion protein of SEQ ID NO: 73 (designed binder)
chain: QDSTSDLIPAPPLSKVPLQQNFQDNQFQGKWYVVGLAGNAILREDKYPAKMFATIYELKEDKSYDVTSVRFENKSCVYTSKTFVPGSQPGEFTTGNIKSAPGQTSTLVRVVSTNYNQHAMVFFKHVSQNREFFVITLYGRTKELTSELKENFIRFSKSLGLPENHIVFPVPIDQCIDGGGGGSGGGGSGGGGSQDSTSDLIPAPPLSKVPLQQNFQDNQFQGKWYVVGWAGNVKLREDKQPQKMSATIYELKEDKSYDVTEVVFEQKKCHYIIKTFVPGSQPGEFTAGDIKSPPGYTSSLVRVVSTNYNQHAMVFFKKVSQNREFFWITLYGRTKELTSELKENFIRFSKSLGLPENHIVFPVPIDQCIDG
notes: not shown: C-terminal His-tag
EC50 [3]: 0.83 nM

B9: fusion protein of SEQ ID NO: 71 (designed binder)
chain: QDSTSDLIPAPPLSKVPLQQNFQDNQFQGKWYVVGLAGNAILREDKYPAKMFATIYELKEDKSYDVTSVRFENKSCVYTIKTFVPGSQPGEFTTGNIKSAPGQTSTLVRVVSTNYNQHAMVFFKHVSQNREFFVITLYGRTKELTSELKENFIRFSKSLGLPENHIVFPVPIDQCIDGGGGGSGGGGSGGGGSQDSTSDLIPAPPLSKVPLQQNFQDNQFQGKWYVVGWAGNVKLREDKQPQKMSATIYELKEDKSYDVTEVVFEQKKCHYIIKTFVPGSQPGEFTAGDIKSPPGYTSSLVRVVSTNYNQHAMVFFKKVSQNREFFWITLYGRTKELTSELKENFIRFSKSLGLPENHIVFPVPIDQCIDG
notes: not shown: C-terminal His-tag
EC50 [3]: 0.94 nM
